# Experimental data: the RNAGym collection of RNA variant scans (doi:10.7554/elife.80360)
# B1: CPEB3 Ribozyme (parent)
# chain: GGGGGCCACAGCAGAAGCGUUCACGUCGCGGCCCCUGUCAGAUUCUGGUGAAUCUGCGAAUUCUGCUGU
# Variants of: B1
# Experiment: self-cleavage, relative activity (ratio to wild type); higher = more cleavage; co-transcriptional
row,Variant,self-cleavage
1,G14C A52G,0.57
2,A13U A42G,0.645
3,A13U A42U,0.494
4,G14C G37C,0.127
5,G14C G37A,0.151
6,G14C G37U,0.183
7,G14C U38G,0.157
8,G14A U64G,0.576
9,G14A U64C,0.346
10,A13G U61G,0.53
11,A13G U61C,0.402
12,A13U G47A,0.893
13,A13U G47U,0.881
14,A13G U62G,0.445
15,A13G U62A,0.622
16,A13G U62C,0.449
17,A13U G37U,0.196
18,A13U G37C,0.186
19,G14C C29G,0.172
20,G14C C29A,0.0734
21,G14C C29U,0.163
22,A13U G48C,0.872
23,A13U G48U,0.916
24,A13U G17U,0.163

row,Variant,self-cleavage
1,A13U G17A,0.102
2,G14C C45A,0.406
3,G14C C45G,0.468
4,G14C C45U,0.562
5,G14C G28A,0.154
6,G14C G28U,0.148
7,G14C G28C,0.154
8,A13U C24U,0.364
9,A13U C24A,0.301
10,G14A G47C,0.827
11,G14A G47U,0.889
12,G14C C18G,0.101
13,A13U U64C,0.853
14,A13U U64A,0.945
15,A13U U64G,0.969
16,A13U C66U,0.583
17,A13U C66A,0.323
18,G14A U44A,0.538
19,G14A U44G,0.64
20,G14A U44C,0.363
21,G14C C33G,0.293
22,G14C C33U,0.636
23,G14C C33A,0.413
24,A13U U38G,0.198

row,Variant,self-cleavage
1,A13U U38A,0.609
2,A13U U38C,0.704
3,G14C G25A,0.142
4,G14C G25U,0.0786
5,G14C G25C,0.167
6,G14C G30A,0.255
7,G14A C39U,0.362
8,G14A C39A,0.22
9,G14A C39G,0.385
10,A13G U69C,1.04
11,A13G U69G,1.01
12,A13U U55G,0.234
13,A13U U55A,0.246
14,A13U G31U,0.402
15,A13U G31C,0.217
16,G14A A51U,0.75
17,G14A A51C,0.486
18,G14A U26A,0.346
19,A13G U67A,0.889
20,A13G U67C,0.94
21,A13U U62A,0.438
22,G14C C22A,0.142
23,G14C C22U,0.0705
24,G14C C22G,0.122

row,Variant,self-cleavage
1,A13U U20C,0.145
2,A13U U20G,0.185
3,G14A U67C,0.583
4,G14A U67A,0.635
5,G14A U67G,0.682
6,G14A U55C,0.281
7,G14A U55G,0.172
8,A13U C54A,0.29
9,A13U C54U,0.729
10,G14C A60G,0.265
11,A13U U67C,0.66
12,A13U U67A,0.629
13,A13U G68A,0.903
14,A13U G68C,0.841
15,A13U G68U,0.886
16,G14A A40C,0.234
17,G14A A40G,0.495
18,G14A C29U,0.113
19,G14C G58A,0.505
20,G14A G68C,0.756
21,G14A A15C,0.305
22,A13G U64C,1
23,A13G U64G,0.745
24,A13G U64A,0.843

row,Variant,self-cleavage
1,G14A G41A,0.196
2,G14C U44A,0.392
3,G14C U44G,0.39
4,G14C U21C,0.286
5,G14C U21G,0.11
6,G14C U21A,0.477
7,G14C A23U,0.761
8,G14C A23C,0.555
9,A13U A23G,0.618
10,A13U A23U,0.963
11,G14A G58C,0.674
12,G14A G58A,0.703
13,G14A G58U,0.895
14,A13U U21G,0.173
15,A13U U21C,0.691
16,A13U U21A,0.785
17,G14C G56C,0.24
18,G14C G56U,0.236
19,G14C G31C,0.167
20,G14C G31A,0.228
21,G14C G31U,0.179
22,A13U C39A,0.394
23,A13U C39G,0.508
24,A13U A51G,0.837

row,Variant,self-cleavage
1,A13U A51C,0.828
2,A13U A51U,0.858
3,G14A U62A,0.554
4,G14A U62C,0.338
5,G14A U62G,0.605
6,G14A A60G,0.358
7,G14A A60C,0.28
8,G14A A60U,0.23
9,G14C G65C,0.231
10,G14C G65A,0.291
11,G14C A15C,0.166
12,A13U G30C,0.393
13,A13U G30U,0.228
14,A13U G30A,0.487
15,G14C C39G,0.248
16,G14C C39A,0.225
17,G14C C39U,0.286
18,A13U G50U,0.857
19,A13U G50C,0.756
20,A13U G50A,0.776
21,G14C U20A,0.102
22,G14C U20C,0.116
23,G14A G28C,0.146
24,G14C A42C,0.331

row,Variant,self-cleavage
1,G14C A42G,0.266
2,G14C A42U,0.228
3,G14A A16C,0.136
4,G14A A16U,0.353
5,G14A A16G,0.463
6,G14C A51G,0.666
7,G14C A51C,0.337
8,G14C C35G,0.191
9,G14C C35U,0.464
10,A13U U69A,0.89
11,A13U U69C,1
12,A13U U69G,0.961
13,G14C C63A,0.928
14,G14C C63U,0.862
15,G14A C24A,0.238
16,G14A C24U,0.2
17,G14A G56C,0.261
18,G14A G56A,0.466
19,G14A G56U,0.321
20,A13U G56C,0.31
21,A13U G56A,0.688
22,G14C A40G,0.324
23,G14C A40C,0.183
24,G14A C32G,0.212

row,Variant,self-cleavage
1,G14A C32A,0.336
2,A13U A52G,0.902
3,A13U A52C,0.8
4,A13U A52U,0.776
5,G14A G30A,0.235
6,G14C A16C,0.143
7,G14C A16U,0.28
8,G14C A16G,0.353
9,G14A C35U,0.668
10,G14A C18U,0.179
11,G14A C18G,0.208
12,G14A C18A,0.163
13,G14A G50A,0.778
14,G14A G50U,0.743
15,G14A G50C,0.61
16,G14C C57A,0.325
17,G14C C57U,0.28
18,G14A U36A,0.0973
19,G14A U36C,0.442
20,G14A G65C,0.311
21,G14A G65U,0.3
22,G14C G17C,0.119
23,G14C G17A,0.164
24,G14A A59G,0.704

row,Variant,self-cleavage
1,G14A A59U,0.369
2,A13U C27A,0.207
3,G14C G50C,0.405
4,G14C G50A,0.613
5,G14C G50U,0.618
6,G14A C22G,0.166
7,A13U A16G,0.589
8,A13U A16C,0.14
9,A13U A16U,0.34
10,A13G U53G,0.737
11,A13G U53C,0.628
12,A13U A60G,0.398
13,A13U A60U,0.356
14,G14A U49C,0.646
15,A13U U49C,0.78
16,A13U A40G,0.607
17,G14C C32A,0.25
18,G14C C32G,0.193
19,A13U U44C,0.345
20,A13U U44G,0.575
21,A13U U46C,0.873
22,A13U U46A,0.942
23,A13U U46G,0.905
24,A13U C63A,0.317

row,Variant,self-cleavage
1,A13U C63G,0.294
2,G14A C54A,0.239
3,G14A U43C,0.624
4,G14A U43G,0.23
5,G14A U43A,0.306
6,A13U G19C,0.133
7,A13U G19A,0.145
8,A13U G19U,0.15
9,G14A G31C,0.183
10,G14A G31A,0.249
11,G14C G41C,0.192
12,G14C G41A,0.16
13,G14C G41U,0.231
14,G14C C24U,0.175
15,G14A C63A,0.829
16,G14C C54U,0.544
17,G14C C54G,0.251
18,G14A G25A,0.156
19,G14A G25C,0.105
20,G14A G25U,0.0915
21,G14A U46C,0.709
22,G14A U46G,0.844
23,A13U C57G,0.226
24,A13U C57U,0.308

row,Variant,self-cleavage
1,G14A A23G,0.444
2,G14A A23C,0.582
3,A13U A59G,0.784
4,A13U A59C,0.33
5,A13U A15U,0.56
6,A13U A15C,0.354
7,A13U A15G,0.79
8,G14C C34G,0.236
9,G14C C34A,0.406
10,G14C C66U,0.358
11,G14C C66A,0.244
12,G14A G48U,0.943
13,G14A G48A,0.868
14,G14A G48C,0.836
15,A13U C33G,0.333
16,A13U C33A,0.759
17,G14C G48A,0.703
18,G14C G48C,0.677
19,A13U C34A,0.704
20,A13U C34G,0.309
21,G14C A59C,0.262
22,G14C A59U,0.263
23,G14C G19A,0.136
24,A13U G41A,0.263

row,Variant,self-cleavage
1,A13U G41C,0.247
2,A13U U43C,0.678
3,A13U U43A,0.31
4,A13U G58A,0.758
5,A13U C35G,0.258
6,A13U G14A,0.328
7,A13U G14U,0.437
8,A13U U36G,0.136
9,A13U U36A,0.121
10,G14A U61A,0.357
11,G14A U53C,0.273
12,G14A C45G,0.638
13,G14A C45A,0.612
14,G14A C45U,0.778
15,G14A G37A,0.191
16,A13U C29A,0.178
17,A13U C29U,0.138
18,A13U C29G,0.0771
19,G14C G47U,0.725
20,G14C G47A,0.729
21,G14C C27U,0.14
22,G14C C27A,0.146
23,G14C C27G,0.159
24,G14A U20A,0.132

row,Variant,self-cleavage
1,G14A U20G,0.124
2,G14A C34A,0.419
3,G14A C34G,0.23
4,G14A C66G,0.287
5,G14A C66A,0.262
6,G14A C66U,0.375
7,A13U G65C,0.417
8,A13U G65A,0.513
9,A13U G65U,0.419
10,G14A A42C,0.343
11,A13U C32G,0.229
12,A13U C32A,0.542
13,G14C G68A,0.704
14,G14C G68U,0.64
15,G14C G68C,0.607
16,G14A A52U,0.643
17,G14A A52C,0.688
18,G14C U43G,0.246
19,A13G U55C,0.621
20,A13G U55G,0.51
21,A13U C45G,0.814
22,A13U C45A,0.764
23,G14C U26G,0.256
24,G14C U26C,0.327

row,Variant,self-cleavage
1,G14A C33A,0.519
2,A13U G28A,0.134
3,A13U G28C,0.125
4,G14C U36C,0.37
5,G14C U36A,0.109
6,G14C U36G,0.19
7,G14A G19A,0.16
8,G14A G19C,0.106
9,G14A U38A,0.478
10,G14A C57G,0.258
11,G14A C57A,0.264
12,A13U G25A,0.168
13,G14A C27A,0.14
14,G14A C27U,0.134
15,G14A G17U,0.111
16,A13U U53A,0.514
17,A13U U53G,0.398
18,A13U C18U,0.19
19,A13U C18G,0.119
20,A13U U61A,0.456
21,A13U U61C,0.32
22,A13U U61G,0.46
